Values joined by “and” are separate entries in the source; they are usually repeats but may differ in a detail not shown here. Equal entries are not always repeated.
Target: human IgG (Sigma 14506) (human)
Test: co-precipitation of human IgG with viral particles by centrifugation; SDS-PAGE of pellets and supernatants

In the case of “recombinant viral particles displaying protein A on their surface (TVCV coat protein-protein A fusion, domains E and D of protein A)”, the binding capacity (mg IgG/mg of viral particles) is reported as 2 and the CP-protein A fusion molecules per bound IgG molecule (scale: CP-protein A fusion molecules per IgG molecule) is reported as 3 and 5.

Reference: patent US20090062514A1
